Results taken from patent US20250101446A1, “METHOD FOR GENETIC TRANSFORMATION OF PLANT ORGANELLE GENOME AND USES THEREOF” (Solar Grants Biotechnology Inc., priority 2022, published 2025).

How the values were obtained:
[1] = biological target: the molecule itself; assay: self-association (dimers and multimers) seen on SDS-PAGE and western blot
Experimental: Western blots membranes were visualized using the enhanced chemiluminescence (ECL) detection kit (GE Healthcare, Cat. No. RPN2232) and imaged with the DNR Bio-Imaging System MicroChemi (RANCOM A/S, Birkerød, Denmark). Densitometry was performed using the TotalLab TL 100 software (Nonlinear Dynamics, Durham, NC).

[2] = test system: human metastatic breast cancer cell line MDA-MB-231; assay: IL-6 secretion by MDA-MB-231 cells (P1 stimulation, plantakine pre-incubation; ELISA); type: cell-based; details: pre-incubated 3 h at the indicated concentrations
Experimental: IL-6 secretion by the human metastatic breast cancer cell line MDA-MB-231 into the conditioned media was measured by ELISA. The cells were pre-incubated for 3 h in the presence of plant-produced recombinant IL-38 or IL-37b at the indicated concentrations (ng/ml) prior to stimulation with peptide P1 (10 mM). PBS (1×) was added to the control. Shown are the average results of 3 independent experiments. ** P<0.01; * P<0.05, compared with the control.
Correct folding of plant-produced IL-38 and IL-37b anti-inflammatory cytokines was assessed by enzyme-linked immunosorbent assay (ELISA) using the DuoSet Human IL-38/IL-1F10 kit (R&D systems) and the Human IL-37/IL-1F7 uncoated ELISA kit (Invitrogen), respectively, following the instructions of the manufacturers. Secreted IL-6 was assessed using the Human IL-6 Uncoated ELISA kit (Invitrogen).

[3] = test system: PHA-stimulated PBMCs; assay: Cytokine secretion from PHA-stimulated PBMCs treated with plantakines (multiplex Luminex); type: cell-based, human
Experimental: The bioactivity of our plantakines IL-37b and IL-38 was assessed by monitoring the secretion of 11 cytokines, generally regarded as inflammatory markers, from PBMCs stimulated with an IA. Freshly isolated human PBMCs were subjected to various treatments-combinations of the IAs with the plantakines at different concentrations. Two different model IAs were used, either the bacterial lipopolysaccharides (LPS) or a lectin from Phaseolus vulgaris (phytohaemagglutinin, PHA); each of the IAs was applied onto cells separately, each IA was applied at two concentrations: LPS at 150 and 300 μg/mL; PHA at 5 and 10 μg/mL. Each IA at each concentration was applied in combination with one of the two plantakines, each of them at three different concentrations: 1, 10 and 100 ng/ml of the monomeric forms present in the purified extracts. Also included were treatments comprised of either IA at their lower concentrations, in combination with both plantakines at 10 ng/ml concentration in order to assess possible synergistic effects. Cells with only IAs applied represented the reference (positive controls for each concentration), cells without any treatment represented the basal level (negative control). The levels of eleven different pro-inflammatory cytokines secreted into the medium from the PBMCs-GM-SCF, IFNγ. TNFα, IL-1α, IL-1β, IL-6, IL-8, IL-22, IL12, IL-17 and IL-10 were compared between the treatments and the controls. We applied Generalized Estimating Equation (GEE) model for the statistical data analysis. This statistical approach allows for nested observations and was used to test the effects of the plantakines IL-37b and IL-38 and their dosage in the context of IA-stimulated PBMCs inflammatory responses.
After isolation, the PBMCs from each donor separately were counted, plated in equal numbers per well and stimulated for 24 h with the applied treatments. Control wells on the plate contained media only (as basal level controls), and LPS and PHA (as positive controls at their corresponding concentrations). After the 24 h treatments stimulation the PBMCs' culture supernatants were used in the multiplex Luminex platform-assisted analysis of the concentrations of the 11 secreted pro-inflammatory cytokines.
The whole blood from 5 random human donors was collected in ACD Vacutainer tubes and immediately processed for isolation of PBMCs by gradient density centrifugation using Lympholyte. […] 5% CO2 and >80% humidity. PBMCs were treated with one of two IAs at 2 concentrations each (LPS at 150 and 300 μg/mL; PHA at 5 and 10 μg/mL) in combination with two test items (plant-produced IL-37b or IL-38) at three concentrations each (1, 10 and 100 ng/ml), based on the monomeric form amounts estimated with densitometry (ImageJ). Each treatment was tested in triplicates. Control wells contained media only (negative control, basal level of detection) and the examined IAs at both tested concentrations as the positive controls. The PBMCs were incubated for 24 hours after the stimulation for analysis of the levels of the secreted cytokines that were determined in the culture supernatant using a multiplex immunoassay (MAGPix®, Luminex), analytes were selected from the Milliplex panel HCYTOMAG-60K, sensitivity range of […]. All parameters of the Milliplex panel cytokines analysis using Luminex platform were validated (Millipore-Sigma).
Non-linear logarithm transformation was performed to address non-normality of distribution of Luminex-derived numeric data. Generalized Estimating Equation (GEE) method was used in the analysis of nested (correlated) structure of the data. Secreted inflammatory cytokine values were used as dependent variables and test item (plantakines) with dosage as independent predictors (factors). Separate analyses were conducted for each of the 11 monitored cytokines and each inflammatory agent/concentration combination. […]

B1: plant-produced recombinant human IL-38, mature form C2-W152 with C-terminal 7xHIS tag (ligand)
chain: CSLPMARYYIIKYADQKALYTRDGQLLVGDPVADNCCAEKICILPNRGLARTKVPIFLGIQGGSRCLACVETEEGPSLQLEDVNIEELYKGGEEATRFTFFQSSSGSAFRLEAAAWPGWFLCGPAEPQQPVQLTKESEPSARTKFYFEQSWHHHHHHH
notes: range 2-152; also called rhIL-38; plantakine IL-38
[1]
  binding result: binds
[2]
  attenuating effect on P1-induced IL-6 secretion (in words): dose-dependent
[3]; 1 ng/mL, PHA 5 μg/mL
  secreted GM-CSF level modulation vs positive control: 18.0%, p = 0.403
  secreted IFNγ level modulation vs positive control: −35.6%, p = 0.137
  secreted IL-1α level modulation vs positive control: −9.5%, p = 0.480
  secreted IL-1β level modulation vs positive control: −2.0%, p = 0.888
  secreted IL-6 level modulation vs positive control: −5.8%, p = 0.798
  secreted IL-8 level modulation vs positive control: −11.3%, p = 0.736
  secreted IL-10 level modulation vs positive control: 17.4%, p = 0.244
  secreted IL-12 level modulation vs positive control: 63.3%, p = 0.020
  secreted IL-17 level modulation vs positive control: 4.1%, p = 0.807
  secreted IL-22 level modulation vs positive control: 8.1%, p = 0.631
  secreted TNFα level modulation vs positive control: 46.2%, p = 0.173
[3]; 1 ng/mL, PHA 10 μg/mL
  secreted GM-CSF level modulation vs positive control: 1.5%, p = 0.881
  secreted IFNγ level modulation vs positive control: −36.9%, p = 0.164
  secreted IL-1α level modulation vs positive control: −5.8%, p = 0.469
  secreted IL-1β level modulation vs positive control: 0.0%, p = 1.000
  secreted IL-6 level modulation vs positive control: −2.0%, p = 0.898
  secreted IL-8 level modulation vs positive control: −5.8%, p = 0.823
  secreted IL-10 level modulation vs positive control: 22.1%, p = 0.033
  secreted IL-12 level modulation vs positive control: 22.2%, p = 0.476
  secreted IL-17 level modulation vs positive control: 22.1%, p = 0.166
  secreted IL-22 level modulation vs positive control: 86.8%, p < 0.001
  secreted TNFα level modulation vs positive control: 55.3%, p = 0.411
[3]; 10 ng/mL, PHA 5 μg/mL
  secreted IFNγ level modulation vs positive control: −53.2%, p = 0.032
  secreted IL-1α level modulation vs positive control: 4.1%, p = 0.690
  secreted IL-1β level modulation vs positive control: 4.1%, p = 0.801
  secreted IL-6 level modulation vs positive control: 10.5%, p = 0.538
  secreted IL-8 level modulation vs positive control: 8.3%, p = 0.772
  secreted IL-10 level modulation vs positive control: 15.0%, p = 0.224
  secreted IL-12 level modulation vs positive control: 107.0%, p = 0.079
  secreted IL-17 level modulation vs positive control: 24.6%, p = 0.215
  secreted IL-22 level modulation vs positive control: 55.8%, p < 0.001
  secreted TNFα level modulation vs positive control: 49.2%, p = 0,123
[3]; 10 ng/mL, PHA 10 μg/mL
  secreted GM-CSF level modulation vs positive control: 42.6%, p = 0.016
  secreted IFNγ level modulation vs positive control: −53.2%, p = 0.046
  secreted IL-1α level modulation vs positive control: −2.0%, p = 0.893
  secreted IL-1β level modulation vs positive control: 4.1%, p = 0.761
  secreted IL-6 level modulation vs positive control: 6.2%, p = 0.722
  secreted IL-8 level modulation vs positive control: −3.9%, p = 0.886
  secreted IL-10 level modulation vs positive control: 32.3%, p < 0.001
  secreted IL-12 level modulation vs positive control: 8.8%, p = 0.750
  secreted IL-17 level modulation vs positive control: 19.7%, p = 0.188
  secreted IL-22 level modulation vs positive control: 61.7%, p = 0.061
  secreted TNFα level modulation vs positive control: 166.4%, p = 0.105
[3]; 100 ng/mL, PHA 5 μg/mL
  secreted IFNγ level modulation vs positive control: 6.2%, p = 0.856
  secreted IL-1α level modulation vs positive control: 46.2%, p = 0.015
  secreted IL-1β level modulation vs positive control: 43.3%, p = 0.019
  secreted IL-6 level modulation vs positive control: 15.0%, p = 0.432
  secreted IL-8 level modulation vs positive control: 10.5%, p = 0.731
  secreted IL-10 level modulation vs positive control: 15.0%, p = 0.275
  secreted IL-12 level modulation vs positive control: 123.0%, p < 0.001
  secreted IL-17 level modulation vs positive control: 29.7%, p = 0.107
  secreted IL-22 level modulation vs positive control: 15.3%, p = 0.347
  secreted TNFα level modulation vs positive control: 85.9%, p = 0.026
[3]; 100 ng/mL, PHA 10 μg/mL
  secreted IFNγ level modulation vs positive control: 6.2%, p = 0.852
  secreted IL-1α level modulation vs positive control: 40.5%, p < 0.001
  secreted IL-1β level modulation vs positive control: 46.2%, p = 0.001
  secreted IL-6 level modulation vs positive control: 4.1%, p = 0.810
  secreted IL-8 level modulation vs positive control: −2.0%, p = 0.943
  secreted IL-10 level modulation vs positive control: 22.1%, p = 0.033
  secreted IL-12 level modulation vs positive control: 74.3%, p = 0.002
  secreted IL-17 level modulation vs positive control: 55.3%, p = 0.003
  secreted IL-22 level modulation vs positive control: 50.0%, p = 0.020
  secreted TNFα level modulation vs positive control: 252.5%, p = 0.017
[3]; PHA 5 μg/mL
  Decreased secretion: number of treatments with statistically significant modulation: 1
  Increased secretion: number of treatments with statistically significant modulation: 7
[3]; PHA 10 μg/mL
  Decreased secretion: number of treatments with statistically significant modulation: 1
  Increased secretion: number of treatments with statistically significant modulation: 12
